This is an account of results in patent US20200323973A1 (INSTITUTE FOR SYSTEMS BIOLOGY, published 2020).

For assay [1], the target named is recombinant full-length MrkA protein with an N-terminal 6xHis-SUMO-tag (MyBiosource, MBS1248970) (Klebsiella pneumoniae) (UniProt P12267). Description: sandwich ELISA 6, 25 nM MrkA; PCC immobilised. For orientation: In an ELISA, binding on a coated surface is turned into a signal by an enzyme label.
Assay [2] shares this target. Description: sandwich ELISA 3, 50 nM MrkA; PCC immobilised.
The target is the same in assay [3]. In words: sandwich ELISA 5, 25 nM MrkA; reference compound, ratio to itself.
The target is the same in assay [4]. Description: sandwich ELISA 2, 25 nM MrkA; reference compound, ratio to itself.
Assay [5] has the same target. In words: sandwich ELISA 6, 25 nM MrkA; reference compound, ratio to itself.
Assay [6] shares this target. In words: sandwich ELISA 1, [MrkA] N/A; reference compound, ratio to itself.
Assay [7] shares this target. In words: sandwich ELISA 4, 100 nM MrkA; reference compound, ratio to itself.
Assay [8] shares this target. In words: sandwich ELISA: biotinylated PCC on NeutrAvidin plate, His-SUMO-MrkA titrated, anti-His detection (FIG. 3A).
Assay [9] shares this target. Description: sandwich ELISA 3, 50 nM MrkA; reference compound, ratio to itself.
Assay [10] has the same target. In words: ELISA with the PCC immobilised, full-length recombinant MrkA (FIG. 3A).
The target is the same in assay [11]. Description: sandwich ELISA 2, 25 nM MrkA; PCC immobilised.
For assay [12] the target is unchanged. Description: ELISA with the PCC immobilised, full-length recombinant MrkA.
For assay [13] the target is unchanged. In words: sandwich ELISA 4, 100 nM MrkA; PCC immobilised.
Assay [14] deals with T1, MrkA on Klebsiella pneumoniae cells (assembled into type 3 fimbriae) (Klebsiella pneumoniae, UniProt P12267 23-202).
T1 construct: whole, on cells; One molecule is used for all three strains; The strain is named under assay; MrkA oligomerises in the fimbriae and the number of copies is not fixed; also called MrkA-expressing K. pneumoniae cells; wild type KPPR1 (ATCC 43816)
T1 sequence: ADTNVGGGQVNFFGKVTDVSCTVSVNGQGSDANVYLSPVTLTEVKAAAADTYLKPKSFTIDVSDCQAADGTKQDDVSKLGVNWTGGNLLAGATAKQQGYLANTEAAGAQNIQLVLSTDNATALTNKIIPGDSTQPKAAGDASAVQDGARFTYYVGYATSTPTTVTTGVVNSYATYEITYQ
Description: whole-cell ELISA on two strains of MrkA-expressing K. pneumoniae (FIG. 5C); biotinylated PCC, SAv-HRP.

Assay [15] deals with T1, MrkA on Klebsiella pneumoniae cells …. Description: whole-cell ELISA, biotinylated PCC and SAv-HRP; KPPR1 (FIG. 5B); also two MrkA-expressing strains at 5 µM (FIG. 5C).
Assay [16] has the same target. Description: whole-cell ELISA on wild type KPPR1 (ATCC 43816) grown in G-CAA; biotinylated PCC, SAv-HRP.
For assay [17] the target is unchanged. In words: flow cytometry on K. pneumoniae BAA 2146, Alexafluor 488 anti-DNP detection. For orientation: A flow cytometer gives signals particle by particle.
For another assay, the target named is T2, SynEp 1 (SEQ ID NO:38) (Klebsiella pneumoniae, also: one residue replaced by azidolysine, position not given here).
T2 peptide: {Biotin-peg5}-FFGKVTDVSCTVSV
In words: sandwich ELISA: biotinylated SynEp immobilised, cy(LLFFF)-DNP titrated, anti-DNP detection; background biotin-PEG6 subtracted.

Bridge positions count the residues as written; N and C are the ends. Ends that are not written are not given here. * marks the point of attachment. Biotin = O=C1N[C@H]2[C@H](CS[C@H]2CCCCC(=O)*)N1

By EC50 is commonly meant the concentration needed to bring the measured effect to its halfway point.

Regarding cy(DLFFF) (SEQ ID NO:12) (peptide), the Relative affinity (ratio of ELISA signal to cy(LLFFF)) in assay [1] worked out at 0.21.
In the case of cy(AAFFF) (SEQ ID NO:14) (peptide), the Relative affinity (ratio of ELISA signal to cy(LLFFF)) in assay [2] is 0.15.
For the molecule “biotinylated cy(LLFFF) (SEQ ID NO:5) (peptide)”, the Relative affinity (ratio of ELISA signal to cy(LLFFF)) in [3], in assay [4], in [5], in assay [6], in assay [7] and in [9] was 1 each time. The EC50 in assay [8] amounted to 50 nM; in assay [10], 230 nM.
With cy(LAFFF) (SEQ ID NO:8) (peptide), in assay [11], the Relative affinity (ratio of ELISA signal to cy(LLFFF)) was 0.26.
Take cy(YRHLG) (SEQ ID NO:56) (peptide): the affinity (likely) in assay [12] was 1 µM.
Regarding “biotinylated cy(LLFFA) (SEQ ID NO:11) (peptide)”, the Relative affinity (ratio of ELISA signal to cy(LLFFF)) in assay [11] is 0.04.
With cy(TTFFF) (SEQ ID NO:35) (peptide), the Relative affinity (ratio of ELISA signal to cy(LLFFF)) in assay [13] came out at 0.04. In addition, the affinity (likely) in [12] was 1 µM.
In the case of cy(LLAFF) (SEQ ID NO:9) (peptide), the Relative affinity (ratio of ELISA signal to cy(LLFFF)) in [11] was found to be 0.59.
Regarding cy(LLFAF) (SEQ ID NO:10) (peptide), the Relative affinity (ratio of ELISA signal to cy(LLFFF)) in [11] came out at 0.1.
The same measure, in the same setting: then cy(ALFFF) (SEQ ID NO:7) (peptide), with 0.53.
Regarding cy(HLFFF) (SEQ ID NO:13) (peptide), the Relative affinity (ratio of ELISA signal to cy(LLFFF)) in [1] stood at 0.81.
As to cy(GVHRL) (SEQ ID NO:57) (peptide), in assay [12], the affinity (likely) was found to be 1 µM.

B1: biotinylated dummy ligand cy(HNGPT) (SEQ ID NO:18) (peptide)
peptide: HNGPT
modifications: macrocycle: propargylglycine before and azidolysine after the printed residues, joined by a triazole (cy); N-terminal biotin-peg5 tag
As for B1, the binding result in [14] is “no binding”.

B2: biotinylated cy(LLFFF) (SEQ ID NO:5) (peptide)
peptide: LLFFF-azidolysine
modifications: triazole N-C; not fully specified (N-terminus); also: biotin-PEG tag by assay: Bio-Peg10-peg10, Bio-peg10 or Bio-peg5
notes: The biotin-PEG tags differ between assays; They are non-peptide, so one molecule is used and the tag is named under assay; also called cy(X-LLFFF-Z)
As for B2, in assay [15], the binding result is reported as “binds”.

B3: biotinylated cy(LLFFA) (SEQ ID NO:11) (peptide)
peptide: LLFFA-propargylglycine
modifications: triazole N-C; not fully specified (N-terminus); printed as cy(Z-LLFFA-X); also: biotin-PEG tag: Bio-peg10 or biotin-peg5 (whole-cell ELISA)
notes: also called Compound Number 6; cy(Z-LLFFA-X)
As to B3, in assay [16], the binding result is reported as “no binding (tested: 5 µM down to 5 nM)”.

B4: cy(LLFFF)-DNP (SEQ ID NO:5) (peptide)
peptide: LLFFF-azidolysine
modifications: triazole N-C; not fully specified (N-terminus); printed as cy(LLFFF)-DNP; also: linker peg5 or peg5-peg5 by assay
notes: also called DNP-conjugated cy(LLFFF); lead AR-PCC
Consider B4, for which the values for the binding result (in assay [17]; in the assay with SynEp 1 (SEQ ID NO:38)) were “binds” and “no binding (tested: 500 nM)”, respectively.
